Target: cathepsin B (Homo sapiens, UniProt P07858)
Assay: Release of a drug moiety from a conjugate in presence of cathepsin
Type: in vitro ADME
Settings: 0.2 units cathepsin B, sodium acetate buffer pH 5.5, 1 mM Cys, 2 hours at 40° C., HPLC ESI-MS
Description: As an example, that is not intended to limit the scope of the invention, the release of a compound of formula (II) from the conjugate was performed in presence of cathepsin as reported below.
The conjugate A1 was incubated with 0.2 units of cathepsin B in sodium acetate buffer pH 5.5 and 1 mM Cys for 2 hours at 40° C.

Cc1cc2c(OC(=O)N(C)CCN(C)C(=O)OCc3ccc(NC(=O)[C@H](CCCNC(N)=O)NC(=O)[C@@H](NC(=O)CCCCCN4C(=O)CC(SC[C@H](N)C(=O)O)C4=O)C(C)C)cc3)cc3c(c2s1)[C@H](CCl)CN3C(=O)c1cc2cc(OCCN3CCCC3)ccc2[nH]1 (stereo partly shown) [A1]
release of the compound of formula (II) from the conjugate (breaking of the Z peptidic linker): Disappearance of the conjugate A1 and release of the corresponding compound of formula (II)

— patent US10266547B2, “Thieno[2,3-e]indole derivatives as new antitumor agents” (NERVIANO MEDICAL SCIENCES S.R.L., priority 2013, dated 2019)
